Measured values reported in publication PMC11035800.

Assays:
CARM1 = CARM1 (UniProt Q86X55); assay: anti-HA co-IP, anti-MYC blot; conditions: reference: MYC-CARM1 wild type; sites Y149
RUNX1 = RUNX1 (UniProt Q01196); assay: anti-MYC IP, anti-RUNX1 blot; conditions: reference: MYC-CARM1 wild type

UniProt Q86X55, sequence (Q86X55 whole entry Y149F): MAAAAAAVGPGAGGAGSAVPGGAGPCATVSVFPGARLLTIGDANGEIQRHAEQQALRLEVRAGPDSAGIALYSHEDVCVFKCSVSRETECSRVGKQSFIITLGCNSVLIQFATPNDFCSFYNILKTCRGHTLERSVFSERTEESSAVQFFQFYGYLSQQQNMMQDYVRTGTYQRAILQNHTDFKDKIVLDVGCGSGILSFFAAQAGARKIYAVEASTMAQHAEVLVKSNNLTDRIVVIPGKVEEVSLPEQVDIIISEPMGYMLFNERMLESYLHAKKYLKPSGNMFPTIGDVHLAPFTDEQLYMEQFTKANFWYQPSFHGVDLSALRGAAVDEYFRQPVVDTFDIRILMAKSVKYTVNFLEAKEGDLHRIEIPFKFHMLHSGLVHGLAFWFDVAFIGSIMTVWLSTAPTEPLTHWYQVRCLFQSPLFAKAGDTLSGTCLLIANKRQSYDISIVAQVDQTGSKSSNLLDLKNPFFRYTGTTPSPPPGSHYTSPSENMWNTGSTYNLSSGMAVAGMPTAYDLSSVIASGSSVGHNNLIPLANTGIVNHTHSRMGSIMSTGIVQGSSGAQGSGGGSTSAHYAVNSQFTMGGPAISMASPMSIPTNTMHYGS

## CARM1 (from UniProt Q86X55) MYC-CARM1 Y149F
CARM1
  binding against the reference: weaker
RUNX1; sites Y149
  binding against the reference: lost

## CARM1 (from UniProt Q86X55) MYC-CARM1 Y334F
RUNX1; sites Y334
  binding against the reference: lost
